One assay deals with platelet-derived growth factor-BB (PDGF-BB) (human) (UniProt P01127). As to the kind of experiment: peptide binding to PDGF-BB.
Sequence of transforming growth factor-β1 (TGF-β1) (human) (P01137 279-390 limits assumed): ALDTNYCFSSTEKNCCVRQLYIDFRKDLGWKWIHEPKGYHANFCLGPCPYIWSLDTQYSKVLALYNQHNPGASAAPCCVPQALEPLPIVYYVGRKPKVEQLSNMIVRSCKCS
Sequence of platelet-derived growth factor-BB (PDGF-BB) (human) (P01127 82-190 limits assumed): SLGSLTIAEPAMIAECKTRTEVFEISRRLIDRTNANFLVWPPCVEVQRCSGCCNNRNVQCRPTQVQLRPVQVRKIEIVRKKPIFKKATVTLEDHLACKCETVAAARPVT
For the molecule QPSHISKYILRWRPKNSVGRWKEAT [peptide 1 (FN634-658) …], the Kd – broadly, a measure of binding affinity in units of concentration – came to 250 nM.
QPSHISKYILRWRPK [peptide 1A (FN634-648) …] came in with a Kd of 450 nM.
The same measure, in the same setting: then WNAPQPSHISKYILRWRPK [FN630-648 …], with 340 nM.
Molecule QLISIQQYGHQEVTRFDFTTTSTST [peptide 2 (FN680-704) …] gave a Kd of 110 nM.

Another assay shares this target. Description: equilibrium binding.
In the case of QPSHISKYILRWRPKNSVGRWKEAT [peptide 1 (FN634-658) …], the Kd worked out at 250 nM.

A further assay addresses transforming growth factor-β1 (TGF-β1) (human) (UniProt P01137). Description: equilibrium binding.
On to QPSHISKYILRWRPKNSVGRWKEAT [peptide 1 (FN634-658) …], for which the dissociation constant (Kd) amounted to 130 nM.
QPSHISKYILRWRPK [peptide 1A (FN634-648) …] yielded an equilibrium dissociation constant (Kd) of 440 nM.
In the case of QPSVGQQMIFEEHGFRRTTPPTTAT [peptide 4 (FN2043-2067) …], the Kd came out at 100 nM. Compared with the last molecule, the Kd is about 4.4-fold lower.
As for NGQTPIQRTIKPDVRSYTITGLQPGT [peptide 3 …], the Kd worked out at 140 nM.
QLISIQQYGHQEVTRFDFTTTSTST [peptide 2 (FN680-704) …] had a dissociation constant Kd of 270 nM.
The molecule ILRWRPKNSVGRWK [peptide 1B …] had a Kd of 400 nM.

The target of the next assay is platelet-derived growth factor-BB (PDGF-BB) (human) (UniProt P01127). Description: method not restated (same value as FN634-648 in paragraph 247).
As to QPSHISKYILRWRPK [peptide 1A (FN634-648) …], the equilibrium dissociation constant (Kd) is 450 nM.
